Starred links: 1 amine or outer side, 2 acyl side, 3 side chain; linkers in the order of their positions; H or OH if unused. Non-standard residues stand in square brackets, D forms with d. Groups on a side chain read outwards from the residue. No end group written: not given here. *: point of attachment. C20 diacid = O=C(O)CCCCCCCCCCCCCCCCCCC(=O)*; C18 diacid = O=C(O)CCCCCCCCCCCCCCCCC(=O)*; γGlu = O=C(O)[C@H](CCC(=O)[*:2])N[*:1]; AEEA = NCCOCCOCC(=O)O; Aib = CC(C)(N)C(=O)O
T1: anti-target CRF1R receptor (UniProt P34998 24-415, limits assumed)
T1 sequence (looked up): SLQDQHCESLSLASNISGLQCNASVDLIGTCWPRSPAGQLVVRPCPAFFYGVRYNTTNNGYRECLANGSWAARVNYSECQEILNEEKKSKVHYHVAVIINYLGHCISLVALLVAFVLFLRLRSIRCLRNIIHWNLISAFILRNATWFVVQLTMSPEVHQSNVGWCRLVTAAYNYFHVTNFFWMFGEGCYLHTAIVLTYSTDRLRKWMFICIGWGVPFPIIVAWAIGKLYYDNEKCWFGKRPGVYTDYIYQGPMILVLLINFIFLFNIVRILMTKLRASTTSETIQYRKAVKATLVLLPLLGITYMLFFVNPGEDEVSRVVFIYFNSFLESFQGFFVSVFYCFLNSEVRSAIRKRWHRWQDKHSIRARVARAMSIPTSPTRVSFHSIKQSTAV

B1: peptide of SEQ ID NO: 63 (peptide)
peptide: FTLSLDVPIKLK([AEEA-AEEA-γGlu-C20 diacid])QILLEQQKQKKERQQAETNVQLLERV-NH2
B2: peptide of SEQ ID NO: 69 (peptide)
peptide: IVLSLDVPIKLK([AEEA-AEEA-γGlu-C18 diacid])K[Aib]LLEQERQKKQREQAETNKQILAQV-NH2
modifications: N-terminus assumed
SMILES: CC[C@H](C)[C@H](N)C(=O)N[C@H](C(=O)N[C@@H](CC(C)C)C(=O)N[C@@H](CO)C(=O)N[C@@H](CC(C)C)C(=O)N[C@@H](CC(=O)O)C(=O)N[C@H](C(=O)N1CCC[C@H]1C(=O)N[C@H](C(=O)N[C@@H](CCCCN)C(=O)N[C@@H](CC(C)C)C(=O)N[C@@H](CCCCNC(=O)COCCOCCNC(=O)COCCOCCNC(=O)CC[C@H](NC(=O)CCCCCCCCCCCCCCCCC(=O)O)C(=O)O)C(=O)N[C@@H](CCCCN)C(=O)NC(C)(C)C(=O)N[C@@H](CC(C)C)C(=O)N[C@@H](CC(C)C)C(=O)N[C@@H](CCC(=O)O)C(=O)N[C@@H](CCC(N)=O)C(=O)N[C@@H](CCC(=O)O)C(=O)N[C@@H](CCCNC(=N)N)C(=O)N[C@@H](CCC(N)=O)C(=O)N[C@@H](CCCCN)C(=O)N[C@@H](CCCCN)C(=O)N[C@@H](CCC(N)=O)C(=O)N[C@@H](CCCNC(=N)N)C(=O)N[C@@H](CCC(=O)O)C(=O)N[C@@H](CCC(N)=O)C(=O)N[C@@H](C)C(=O)N[C@@H](CCC(=O)O)C(=O)N[C@H](C(=O)N[C@@H](CC(N)=O)C(=O)N[C@@H](CCCCN)C(=O)N[C@@H](CCC(N)=O)C(=O)N[C@H](C(=O)N[C@@H](CC(C)C)C(=O)N[C@@H](C)C(=O)N[C@@H](CCC(N)=O)C(=O)N[C@H](C(N)=O)C(C)C)[C@@H](C)CC)[C@@H](C)O)[C@@H](C)CC)C(C)C)C(C)C
B3: peptide of SEQ ID NO: 62 (peptide)
peptide: FTLSLDVPIKLK([AEEA-AEEA-γGlu-C20 diacid])QILLKQQKQKKERQQAETNVQLLERV-NH2
B4: peptide of SEQ ID NO: 67 (peptide)
peptide: IVLSLDVPIKLK([AEEA-AEEA-γGlu-C18 diacid])QILLEQEKQKKQREQAETNKQILAQV-NH2
modifications: N-terminus assumed
SMILES: CC[C@H](C)[C@H](N)C(=O)N[C@H](C(=O)N[C@@H](CC(C)C)C(=O)N[C@@H](CO)C(=O)N[C@@H](CC(C)C)C(=O)N[C@@H](CC(=O)O)C(=O)N[C@H](C(=O)N1CCC[C@H]1C(=O)N[C@H](C(=O)N[C@@H](CCCCN)C(=O)N[C@@H](CC(C)C)C(=O)N[C@@H](CCCCNC(=O)COCCOCCNC(=O)COCCOCCNC(=O)CC[C@H](NC(=O)CCCCCCCCCCCCCCCCC(=O)O)C(=O)O)C(=O)N[C@@H](CCC(N)=O)C(=O)N[C@H](C(=O)N[C@@H](CC(C)C)C(=O)N[C@@H](CC(C)C)C(=O)N[C@@H](CCC(=O)O)C(=O)N[C@@H](CCC(N)=O)C(=O)N[C@@H](CCC(=O)O)C(=O)N[C@@H](CCCCN)C(=O)N[C@@H](CCC(N)=O)C(=O)N[C@@H](CCCCN)C(=O)N[C@@H](CCCCN)C(=O)N[C@@H](CCC(N)=O)C(=O)N[C@@H](CCCNC(=N)N)C(=O)N[C@@H](CCC(=O)O)C(=O)N[C@@H](CCC(N)=O)C(=O)N[C@@H](C)C(=O)N[C@@H](CCC(=O)O)C(=O)N[C@H](C(=O)N[C@@H](CC(N)=O)C(=O)N[C@@H](CCCCN)C(=O)N[C@@H](CCC(N)=O)C(=O)N[C@H](C(=O)N[C@@H](CC(C)C)C(=O)N[C@@H](C)C(=O)N[C@@H](CCC(N)=O)C(=O)N[C@H](C(N)=O)C(C)C)[C@@H](C)CC)[C@@H](C)O)[C@@H](C)CC)[C@@H](C)CC)C(C)C)C(C)C
B5: peptide of SEQ ID NO: 61 (peptide)
peptide: FTLSLDVPTKIK([AEEA-AEEA-γGlu-C20 diacid])QILLKQQKQKKERQQAETNKQLLERV-NH2
B6: peptide of SEQ ID NO: 70 (peptide)
peptide: IVLSLDVPIKLK([AEEA-AEEA-γGlu-C18 diacid])QILLEQERQKKQREQAETN[Aib]QILAQV-NH2
modifications: N-terminus assumed
SMILES: CC[C@H](C)[C@H](N)C(=O)N[C@H](C(=O)N[C@@H](CC(C)C)C(=O)N[C@@H](CO)C(=O)N[C@@H](CC(C)C)C(=O)N[C@@H](CC(=O)O)C(=O)N[C@H](C(=O)N1CCC[C@H]1C(=O)N[C@H](C(=O)N[C@@H](CCCCN)C(=O)N[C@@H](CC(C)C)C(=O)N[C@@H](CCCCNC(=O)COCCOCCNC(=O)COCCOCCNC(=O)CC[C@H](NC(=O)CCCCCCCCCCCCCCCCC(=O)O)C(=O)O)C(=O)N[C@@H](CCC(N)=O)C(=O)N[C@H](C(=O)N[C@@H](CC(C)C)C(=O)N[C@@H](CC(C)C)C(=O)N[C@@H](CCC(=O)O)C(=O)N[C@@H](CCC(N)=O)C(=O)N[C@@H](CCC(=O)O)C(=O)N[C@@H](CCCNC(=N)N)C(=O)N[C@@H](CCC(N)=O)C(=O)N[C@@H](CCCCN)C(=O)N[C@@H](CCCCN)C(=O)N[C@@H](CCC(N)=O)C(=O)N[C@@H](CCCNC(=N)N)C(=O)N[C@@H](CCC(=O)O)C(=O)N[C@@H](CCC(N)=O)C(=O)N[C@@H](C)C(=O)N[C@@H](CCC(=O)O)C(=O)N[C@H](C(=O)N[C@@H](CC(N)=O)C(=O)NC(C)(C)C(=O)N[C@@H](CCC(N)=O)C(=O)N[C@H](C(=O)N[C@@H](CC(C)C)C(=O)N[C@@H](C)C(=O)N[C@@H](CCC(N)=O)C(=O)N[C@H](C(N)=O)C(C)C)[C@@H](C)CC)[C@@H](C)O)[C@@H](C)CC)[C@@H](C)CC)C(C)C)C(C)C

Molecular target: rat CRF2R α receptor (rat, UniProt P47866 20-411)
Experiment: cell-based or functional assay

Chain of rat CRF2R α receptor (P47866 20-411): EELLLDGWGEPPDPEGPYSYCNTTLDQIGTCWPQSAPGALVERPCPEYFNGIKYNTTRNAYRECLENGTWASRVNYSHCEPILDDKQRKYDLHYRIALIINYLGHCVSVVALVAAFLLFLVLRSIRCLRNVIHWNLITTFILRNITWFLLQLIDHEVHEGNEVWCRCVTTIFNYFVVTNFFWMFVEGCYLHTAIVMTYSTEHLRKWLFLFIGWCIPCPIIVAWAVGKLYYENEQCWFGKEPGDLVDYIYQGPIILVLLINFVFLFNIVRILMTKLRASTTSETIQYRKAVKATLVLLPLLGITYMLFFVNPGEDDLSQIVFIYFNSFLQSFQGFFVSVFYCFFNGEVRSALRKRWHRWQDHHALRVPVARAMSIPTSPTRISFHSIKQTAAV

EC50 [nM], 0% HSA (cAMP, A7R5 cells) [nM]	Binder
4.73	B1
7.33	B2
2.9	B3
0.66	B4
0.94	B5
8.72	B6

Molecular target: T1, anti-target CRF1R receptor
Experiment: cell-based or functional assay

EC50[nM] 0% HSA (cAMP, CRF1R-overexpression CHO cells) [nM]	Emax (%) (cAMP, CRF1R-overexpression CHO cells)	Binder
> 1000	4.68	B1
> 1000	0.02	B2
> 1000	2.28	B3
> 1000	9.18	B4
> 1000	3.31	B5
> 1000	3.03	B6
